Here are results for 19 molecules from patent US20250154277A1 (CONCEPT TO MEDICINE BIOTECH, published 2025).

Changes are numbered by the printed parent chain.

The chains are these.
B1: Hu14G12-29 (antibody, V domains shown)
VH: QVQLVQSGAEVKKPGASVKVSCKASGYAFSSSWMNWVRQAPGQGLEWMGRIYREDGHTNYNGKFKGRVTMTADKSITTAYMELSRLRSDDTAVYYCANGGAMDYWGQGTLVTVSS
VL: DIQMTQSPSSLSASVGDRVTITCRASQDISNYLNWYQQKPGKAPKLLIYYTSRLHSGVPSRFSGSGSGTDYTLTISSLQPEDIATYFCQQDNTLPWTFGGGTKVEIK
notes: humanized
B2: Hu14G12-11 (antibody, V domains shown)
VH: EVQLVQSGAEVKKPGATVKISCKVSGYAFSSSWMNWVKQAPGKGLEWIGRIYREDGHTNYNGKFKGRATITADTSTTTAYMELSSLRSEDTAVYFCANGGAMDYWGQGTLVTVSS
VL: B1 VL with T22S, P44V, Y71F, L73F, V104L
notes: humanized
B3: Hu14G12-15 (antibody, V domains shown)
VH: B2 VH with V24A, T91S
VL: B1 VL with T22S, P44V, Y71F, L73F, V104L
notes: humanized
B4: Hu14G12-1 (antibody, V domains shown)
VH: B2 VH with K38Q, I48M, A68V, T77D, F95Y, N98T
VL: B1 VL with Y71F, L73F, F87Y, V104L
notes: humanized
B5: Hu14G12-12 (antibody, V domains shown)
VH: B2 VH
VL: B1 VL with T22S, A43T, P44V, L73F, V104L
notes: humanized
B6: Hu14G12-7 (antibody, V domains shown)
VH: B2 VH with K38Q, A68V, T77D
VL: B1 VL with T22S, P44V, Y71F, L73F, V104L
notes: humanized
B7: Hu14G12-18 (antibody, V domains shown)
VH: QVQLVQSGAEVKKPGSSVKVSCKASGGTFSSSWMNWVKQAPGQGLEWIGRIYREDGHTNYNGKFKGKATLTADKSTSTAYMELSSLRSEDTAVYFCANGGAMDYWGQGTTVTVSS
VL: B1 VL with A43V, I83V, V104L
notes: humanized
B8: Hu14G12-4 (antibody, V domains shown)
VH: B2 VH with K38Q, I48M, A68V, T77D, F95Y, N98T
VL: B1 VL with T22S, A43T, P44V, L73F, V104L
notes: humanized
B9: Hu14G12-8 (antibody, V domains shown)
VH: B2 VH with K38Q, A68V, T77D
VL: B1 VL with T22S, A43T, P44V, L73F, V104L
notes: humanized
B10: Hu14G12-5 (antibody, V domains shown)
VH: B2 VH with K38Q, A68V, T77D
VL: B1 VL with Y71F, L73F, F87Y, V104L
notes: humanized
B11: Hu14G12-16 (antibody, V domains shown)
VH: B2 VH with V24A, T91S
VL: B1 VL with T22S, A43T, P44V, L73F, V104L
notes: humanized
B12: Hu14G12-3 (antibody, V domains shown)
VH: B2 VH with K38Q, I48M, A68V, T77D, F95Y, N98T
VL: B1 VL with T22S, P44V, Y71F, L73F, V104L
notes: humanized
B13: Hu14G12-13 (antibody, V domains shown)
VH: B2 VH with V24A, T91S
VL: B1 VL with Y71F, L73F, F87Y, V104L
notes: humanized
B14: Hu14G12-9 (antibody, V domains shown)
VH: B2 VH
VL: B1 VL with Y71F, L73F, F87Y, V104L
notes: humanized
B15: Hu14G12-37 (antibody, V domains shown)
VH: B1 VH with I76T, R85S, D89E
VL: B1 VL with S10T, D70E, E81D
notes: humanized
B16: Hu14G12-47 (antibody, V domains shown)
VH: B1 VH with I76T, S84R, R85S
VL: B1 VL with S10T, D70E, E81D
notes: humanized
B17: Hu14G12-44 (antibody, V domains shown)
VH: B1 VH with I76T, S84R, R85S
VL: B1 VL
notes: humanized
B18: Hu14G12-43 (antibody, V domains shown)
VH: B1 VH with I76T, S84R, R85S
VL: B1 VL with L73F
notes: humanized
B19: Hu14G12-32 (antibody, V domains shown)
VH: B1 VH
VL: B1 VL with S10T, D70E, E81D
notes: humanized

One assay concerns the target T1, human 5T4-His protein (human, UniProt Q13641 32-355).
T1 construct: also called recombinant 5T4 protein (human 5T4-his tag); human 5T4 protein; not shown: His tag
T1 sequence (looked up): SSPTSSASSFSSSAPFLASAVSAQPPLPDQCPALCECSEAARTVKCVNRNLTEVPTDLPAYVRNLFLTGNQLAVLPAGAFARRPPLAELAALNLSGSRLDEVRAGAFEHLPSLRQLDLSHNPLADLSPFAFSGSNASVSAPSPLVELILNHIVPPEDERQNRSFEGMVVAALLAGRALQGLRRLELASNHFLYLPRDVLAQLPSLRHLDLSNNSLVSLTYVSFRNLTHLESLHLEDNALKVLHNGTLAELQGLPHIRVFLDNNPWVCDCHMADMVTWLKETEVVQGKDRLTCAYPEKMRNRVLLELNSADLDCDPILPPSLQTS
The assay can be described thus: ELISA, coated 5T4-His. As to the method:
To evaluate the binding activity of 14G12 humanized antibodies to human 5T4, the 14G12 chimeric antibody along with 14G12 humanized mAbs were subjected to ELISA test.
Briefly, microtiter plates were coated with human 5T4-His protein at 1 μg/ml in PBS, 100 μl/well at 4° C. overnight, then blocked with […]. Serial dilutions of antibodies were added to each well and incubated for 1 hour at 37° C. The plates were washed with PBS/Tween and then incubated with Goat Anti-Human IgG-HRP for 30 mins at 37° C. After washing, the plates were developed with TMB substrate and analyzed by spectrophotometer at OD 450 nm. As shown in FIG. 10 and Table 6, most of the humanized antibodies bound to human 5T4 at high activity.
Turning to B1, the midpoint of the response, the EC50, lay at 0.0067 µg/mL.

As to B2, the EC50 (usually the midpoint of the concentration-response curve) came out at 0.015 µg/mL.

In turn, B3 showed an EC50 of 0.014 µg/mL.

B4 yielded an EC50 of 0.021 µg/mL.

Take B5: a half-maximal effect (EC50) was put at 0.019 µg/mL.

With B6, the concentration giving a half-maximal response (EC50) worked out at 0.015 µg/mL.

In turn, B7 showed an EC50 of 0.31 µg/mL.

On to B8, for which it took 0.019 µg/mL to reach a half-maximal effect (EC50).

On to B9, for which the EC50 was determined as 0.015 µg/mL.

B10: the EC50 came to 0.014 µg/mL.

As for B11, the EC50 is 0.017 µg/mL.

In turn, B12 showed an EC50 of 0.026 µg/mL.

For the molecule B13, the response was half-maximal at 0.018 µg/mL (EC50). The EC50 values of the last two molecules are within 1.5-fold of each other.

Turning to B14, the EC50 is 0.012 µg/mL.

In turn, B15 yielded an EC50 of 0.011 µg/mL.

B16: the midpoint of the response, the EC50, lay at 0.014 µg/mL.

In the case of B17, the EC50 was 0.0075 µg/mL.

Turning to B18, it took 0.0064 µg/mL to reach a half-maximal effect (EC50).

In the case of B19, the midpoint of the response, the EC50, lay at 0.0093 µg/mL.

The target of the next assay is T1, human 5T4-His protein. The assay can be described thus: SPR Biacore, Protein A capture. The protocol:
The binding of the 14G12 humanized antibodies to recombinant 5T4 protein (human 5T4-his tag) was tested with Biacore using a capture method. The mAbs were captured using Protein A chip. Serial dilution of human 5T4-his tag protein was injected over captured antibody for 120 s-180 s at a flow rate of 30 μl/min. The antigen was allowed to dissociate for 360 s-1000 s. All the experiments were carried out on a Biacore T200. Data analysis was carried out using the Biacore T200 evaluation software.
Take B1: the Kd (as a rule, the constant that tells how readily two partners part at equilibrium) stood at 2.14 nM; the koff (commonly a measure of how fast the partners let go of each other) was 0.0011 s⁻¹; the association rate constant (kon) (usually the second-order rate constant of association) came out at 514000 M⁻¹ s⁻¹.

The molecule B2 displayed a Kd of 2.17 nM, a koff of 0.000523 s⁻¹ and an on-rate (kon) of 241000 M⁻¹ s⁻¹.

As for B3, binding was characterised by a dissociation constant (Kd) of 3.19 nM, the koff was 0.000837 s⁻¹ and the on-rate (kon) amounted to 262000 M⁻¹ s⁻¹.

For B4, the equilibrium dissociation constant (Kd) is 42.7 nM, the koff is 0.0121 s⁻¹ and the kon is 283000 M⁻¹ s⁻¹.

For the molecule B5, the Kd stood at 2.39 nM, the koff was 0.000655 s⁻¹ and the kon came to 274000 M⁻¹ s⁻¹.

Take B6: the Kd turned out to be 2.52 nM, the koff was 0.000846 s⁻¹ and the kon was 336000 M⁻¹ s⁻¹.

Turning to B7, binding was put at a Kd of 4.55 nM, the koff is 0.00178 s⁻¹ and the kon worked out at 392000 M⁻¹ s⁻¹.

B8 returned a Kd of 12.5 nM, a koff of 0.00267 s⁻¹ and a kon of 214000 M⁻¹ s⁻¹.

The molecule B9 showed a Kd of 1.36 nM, a koff of 0.000464 s⁻¹ and an on-rate (kon) of 340000 M⁻¹ s⁻¹.

Take B10: the affinity, expressed as Kd, was 5.88 nM; the koff is 0.00146 s⁻¹; the kon stood at 248000 M⁻¹ s⁻¹.

B11: binding was characterised by a dissociation constant (Kd) of 1.85 nM, the koff turned out to be 0.000499 s⁻¹ and the kon was determined as 269000 M⁻¹ s⁻¹.

Turning to B12, binding was put at a Kd of 27.5 nM, the koff was 0.0055 s⁻¹ and the kon came out at 200000 M⁻¹ s⁻¹.

B13 displayed a dissociation constant (Kd) of 6.12 nM, a koff of 0.00121 s⁻¹ and a kon of 198000 M⁻¹ s⁻¹.

Take B14: the Kd was 5.31 nM, the koff came out at 0.00107 s⁻¹ and the kon was determined as 202000 M⁻¹ s⁻¹.

Take B15: the Kd is 1.05 nM, the koff turned out to be 0.00142 s⁻¹ and the kon was 1.34e+06 M⁻¹ s⁻¹.

Turning to B16, the affinity, expressed as Kd, was 2.1 nM; the koff was found to be 0.000921 s⁻¹; the kon was determined as 438000 M⁻¹ s⁻¹.

In turn, B17 displayed a Kd of 1.41 nM, a koff of 0.00197 s⁻¹ and a kon of 1.4e+06 M⁻¹ s⁻¹.

Molecule B18 had a Kd of 0.844 nM, a koff of 0.0016 s⁻¹ and a kon of 1.89e+06 M⁻¹ s⁻¹.

Take B19: the Kd came to 2.76 nM, the dissociation rate constant (koff) was 0.000979 s⁻¹ and the kon turned out to be 355000 M⁻¹ s⁻¹.
